According to article PMC10157491:

These sequences were tested against T1, His6-NhaR (Escherichia coli MG1655?) (UniProt P0A9G2) (assay: EMSA). Settings: NhaR EMSA: 20 mM Tris-HCl pH 8.0, 100 mM NaCl, 1 mM DTT, 10% glycerol, 125 ug/mL BSA, 10 ng DNA in 10 uL, 25 C 20 min; Fis: 10 mM Tris-HCl pH 8.0, 150 mM NaCl ….
T1 sequence: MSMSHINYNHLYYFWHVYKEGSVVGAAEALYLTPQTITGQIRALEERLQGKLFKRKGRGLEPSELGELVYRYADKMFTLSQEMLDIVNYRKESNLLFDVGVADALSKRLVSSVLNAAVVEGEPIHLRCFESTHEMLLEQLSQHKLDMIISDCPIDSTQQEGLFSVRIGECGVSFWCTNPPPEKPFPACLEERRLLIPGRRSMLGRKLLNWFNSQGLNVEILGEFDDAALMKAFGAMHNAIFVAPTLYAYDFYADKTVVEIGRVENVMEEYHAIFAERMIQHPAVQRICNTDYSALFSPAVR
“CAATTAAATCCGTGAGTGCCGTAGCGCAGCCTTTCATCAGGACTTTCGAAAAATCCGAAATCATGCATCGGAATTTACTGATTTAATTATTTTAATCCTAATTTATTTTGAAAAAGGCATTGGGATTTATGCCGTATTCCTGAAGA (double strand) [PpgaA]” was tested, and the binding was “binds”. In the case of “CCCGGTAATCTATTGTGGGAATTTAATTTAAGTGCAGAAGTAATATTTTCGCCGGATTTTATTCGGAATATCCTGCTTATCCTCGTGCTGTTTCTCACGTAGTCTATAATTTCCTTTTTAAGCCCACAGGAGAGCAAC (double strand) [PosmC]”, the binding is reported as “binds”. “CCGTCAAAAACGCATCTCACCGCTGATGGCGCAAATTCTTCAATAGCTCGTAAAAAACGAATTATTCCTACACTATAATCTGATTTTAACGATGATTCGTGCGGGGTAAAATAGTAAAAACGATCTATTCACCTGAAAGAGAAATAAAAAGTGAAACATCTGCATCGATTCTTTAGCAGTGATGCCTCGGGA (double strand) [PnhaA]” was tested, and the binding was “binds”.
